US10064928B2, “Peptides and combination of peptides for use in immunotherapy against CLL and other cancers” (IMMATICS BIOTECHNOLOGIES GMBH, priority 2015, dated 2018)

Experiments:
HLA-A*02:01 = HLA-A*02:01 (Homo sapiens, UniProt P04439, D140Y/D185E/D98H/E176V/E277Q/G131W/G231S/I119V/I121R/I166T/I218V/L300P/L318F/N151K/N90K/P208A/P217A/Q86G/Q94H/R138H/R169H/T345S); test: MHC binding assay (UV-ligand exchange, beta2m ELISA); details: binding of HLA-class I restricted peptides to HLA-A*02:01, β2m ELISA
Outline: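 Exchange yield, UV-ligand exchange: 100-fold diluted samples on streptavidin plates, 1 h at 37 °C; HRP anti-β2m 1 h at 37 °C; TMB read at 450 nm.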

CD8+ T cells = test: In vitro T-cell priming assay with aAPCs loaded with peptide/MHC and anti-CD28, multimer readout; assay type: cell-based, human; details: in vitro immunogenicity, HLA-A*02 restricted peptides; percentage of positive wells
From the text: In order to obtain information regarding the immunogenicity of the TUMAPs of the present invention, the inventors performed investigations using an in vitro T-cell priming assay based on repeated stimulations of CD8+ T cells with artificial antigen presenting cells (aAPCs) loaded with peptide/MHC complexes and anti-CD28 antibody.
In order to perform in vitro stimulations by artificial antigen presenting cells loaded with peptide-MHC complex (pMHC) and anti-CD28 antibody, the inventors first isolated CD8+ T cells from fresh HLA-A*02 leukapheresis products via positive selection using CD8 microbeads (Miltenyi Biotec, Bergisch-Gladbach, Germany) of healthy donors obtained from the University clinics Mannheim, Germany, after informed consent.
PBMCs and isolated CD8+ lymphocytes were incubated in T-cell medium (TCM) until use consisting of RPMI-Glutamax (Invitrogen, Karlsruhe, Germany) supplemented with 10% heat inactivated human AB serum (PAN-Biotech, Aidenbach, Germany), 100 U/ml Penicillin/100 μg/ml Streptomycin (Cambrex, Cologne, Germany), 1 mM sodium pyruvate (CC Pro, Oberdorla, Germany), 20 μg/ml Gentamycin (Cambrex). 2.5 ng/ml IL-7 (PromoCell, Heidelberg, Germany) and 10 U/ml IL-2 (Novartis Pharma, Nürnberg, Germany) were also added to the TCM at this step.
Generation of pMHC/anti-CD28 coated beads, T-cell stimulations and readout was performed in a highly defined in vitro system using four different pMHC molecules per stimulation condition and 8 different pMHC molecules per readout condition.
The purified co-stimulatory mouse IgG2a anti human CD28 Ab 9.3 (Jung et al., 1987) was chemically biotinylated using Sulfo-N-hydroxysuccinimidobiotin as recommended by the manufacturer (Perbio, Bonn, Germany). Beads used were 5.6 μm diameter streptavidin coated polystyrene particles (Bangs Laboratories, Illinois, USA).
800.000 beads/200 μl were coated in 96-well plates in the presence of 4×12.5 ng different biotin-pMHC, washed and 600 ng biotin anti-CD28 were added subsequently in a volume of 200 μl. Stimulations were initiated in 96-well plates by co-incubating […] CD8+ T cells with 2×10^5 washed coated beads in 200 μl TCM supplemented with 5 ng/ml IL-12 (PromoCell) for 3 days at 37° C. Half of the medium was then exchanged by fresh TCM supplemented with 80 U/ml IL-2 and incubating was continued for 4 days at 37° C. This stimulation cycle was performed for a total of three times. For the pMHC multimer readout using 8 different pMHC molecules per condition, a two-dimensional combinatorial coding approach was used as previously described (Andersen et al., 2012) with minor modifications encompassing coupling to 5 different fluorochromes. Finally, multimeric analyses were performed by staining the cells with Live/dead near IR dye (Invitrogen, Karlsruhe, Germany), CD8-FITC antibody clone SK1 (BD, Heidelberg, Germany) and fluorescent pMHC multimers. For analysis, a BD LSRII SORP cytometer equipped with appropriate lasers and filters was used. Peptide specific cells were calculated as percentage of total CD8+ cells. Evaluation of multimeric analysis was done using the FlowJo software (Tree Star, Oreg., USA). In vitro priming of specific multimer+CD8+ lymphocytes was detected by comparing to negative control stimulations.

Row | Substance | Peptide Exchange (MHC class I binding score, peptide exchange yield) (HLA-A*02:01) | Wells positive [%] (CD8+ T cells)
1 | 112 (KTLDVDATYEI; listed as Homo sapiens) [compound 112] | “+++” (≥50 = +++) | “+” (<20% = +)
2 | 329 (VLMDGSVKL; listed as Homo sapiens) [compound 329] | “++++” (≥75% = ++++) | “+++” (50%-69% = +++)
3 | 86 (HLYPGAVTI; listed as Homo sapiens) [compound 86] | “+++” (≥50 = +++) | “+” (<20% = +)
4 | 281 (NLLDDRGMTAL; listed as Homo sapiens) [compound 281] | “+++” (≥50 = +++) | “+” (<20% = +)
5 | 380 (YLDRKLLTL; listed as Homo sapiens) [compound 380] | “+++” (≥50 = +++) | “++++” (>=70% = ++++)
6 | 57 (GLSEISLRL; listed as Homo sapiens) [compound 57] | “++++” (≥75% = ++++) | “+” (<20% = +)
7 | 81 (WLVGQEFEL; listed as Homo sapiens) [compound 81] | “+++” (≥50 = +++) | “+” (<20% = +)
8 | 96 (ILIDKTSFV; listed as Homo sapiens) [compound 96] | “+++” (≥50 = +++) | “+” (<20% = +)
9 | 197 (YLQEVPILTL; listed as Homo sapiens) [compound 197] | “++++” (≥75% = ++++) | “+” (<20% = +)
10 | 320 (TIAPVTVAV; listed as Homo sapiens) [compound 320] | “++++” (≥75% = ++++) | “+” (<20% = +)
11 | 282 (LLRDGIELV; listed as Homo sapiens) [compound 282] | “+++” (≥50 = +++) | “++” (20%-49% = ++)
12 | 192 (YIQEYLTLL; listed as Homo sapiens) [compound 192] | “+++” (≥50 = +++) | “+” (<20% = +)
13 | 240 (ILARDILEI; listed as Homo sapiens) [compound 240] | “+++” (≥50 = +++) | “+” (<20% = +)
14 | 200 (YMFEEVPIVI; listed as Homo sapiens) [compound 200] | “++++” (≥75% = ++++) | “+” (<20% = +)
15 | 56 (FVFEAPYTL; listed as Homo sapiens) [compound 56] | “+++” (≥50 = +++) | “++” (20%-49% = ++)
16 | 5 (ALIFKIASA; listed as Homo sapiens) [compound 5] | “+++” (≥50 = +++) | “+++” (50%-69% = +++)

Row | Substance | Peptide Exchange (MHC class I binding score, peptide exchange yield) (HLA-A*02:01) | Wells positive [%] (CD8+ T cells)
17 | 323 (SLDLFNCEV; listed as Homo sapiens) [compound 323] | “++++” (≥75% = ++++) | “+” (<20% = +)
18 | 154 (SLLAELHVLTV; listed as Homo sapiens) [compound 154] | “++++” (≥75% = ++++) | “+” (<20% = +)
19 | 202 (YVDDVFLRV; listed as Homo sapiens) [compound 202] | “++++” (≥75% = ++++) | “++” (20%-49% = ++)
20 | 100 (ILNNEVFAI; listed as Homo sapiens) [compound 100] | “+++” (≥50 = +++) | “++” (20%-49% = ++)
21 | 332 (VMIQHVENL; listed as Homo sapiens) [compound 332] | “+++” (≥50 = +++) | “+” (<20% = +)
22 | 69 (GLHQREIFL; listed as Homo sapiens) [compound 69] | “+++” (≥50 = +++) | “+” (<20% = +)
23 | 26 (AVLLVLPLV; listed as Homo sapiens) [compound 26] | “+++” (≥50 = +++) | “+” (<20% = +)
24 | 307 (LLLTKPTEA; listed as Homo sapiens) [compound 307] | “+++” (≥50 = +++) | “+” (<20% = +)
25 | 2 (ALHRPDVYL; listed as Homo sapiens) [compound 2] | “+++” (≥50 = +++) | “+” (<20% = +)
26 | 1 (AIPPSFASIFL; listed as Homo sapiens) [compound 1] | “+++” (≥50 = +++) | “+++” (50%-69% = +++)
27 | 322 (SLASIHVPL; listed as Homo sapiens) [compound 322] | “+++” (≥50 = +++) | “+” (<20% = +)
28 | 54 (FLYPFPLALF; listed as Homo sapiens) [compound 54] | “+++” (≥50 = +++) | “+” (<20% = +)
29 | 220 (ALPEILFAKV; listed as Homo sapiens) [compound 220] | “+++” (≥50 = +++) | “++” (20%-49% = ++)
30 | 32 (FIDKFTPPV; listed as Homo sapiens) [compound 32] | “++++” (≥75% = ++++) | “++++” (>=70% = ++++)
31 | 101 (ILVVIEPLL; listed as Homo sapiens) [compound 101] | “++++” (≥75% = ++++) | “+” (<20% = +)
